This note sets out measurements from the Human Domainome abundance scans (Beltran et al. 2025).

± gives the uncertainty stated by the source.

B1: Neutrophil cytosol factor 2, residues 456 to 514; numbered along this chain, P19878 (parent)
chain: LKKGSQVEALFSYEATQPEDLEFQEGDIILVLSKVNEEWLEGECKGKVGIFPKVFVEDC

In the series the parent is B1. Briefly: abundance fitness (aPCA) (normalised: wild type 0, dead -1); higher = more abundant; growth selection in yeast, the domain comes from the species named. As to conditions: Homo sapiens.
LKKGSQVEALFSYEATQPEDLEFQEGDIILVLSKVNEEWLEGECKGKVGIFPKVTVEDC [F55T]: the abundance fitness was -0.133 ± 0.18.
Under LKKGSQVEALFSYEATQPEDLEFQEGDIILVLSKVNEEWLEGECKGKVGIFPKVVVEDC [F55V] stands 0.271 ± 0.077.
In the case of LKKGSQVEALFSYEATQPEDLEFQEGDIILVLSKVNEEWLEGECKGKVGIFPKVWVEDC [F55W] it was -0.529 ± 0.35; in that of LKKGSQVEALFSYEATQPEDLEFQEGDIILVLSKVNEEWLEGECKGKVGIFPKVYVEDC [F55Y], 0.152 ± 0.11.
As to LKKGSQVEALFSYEATQPEDLEFQEGDIILVLSKVNEEWLEGECKGKVGIFPKVFPEDC [V56P], the abundance fitness was -1.09 ± 0.48.
Take LKKGSQVEALFSYEATQPEDLEFQEGDIILVLSKVNEEWLEGECKGKVGIFPKVFKEDC [V56K]: the abundance fitness was -0.637 ± 0.48.
On to LKKGSQVEALFSYEATQPEDLEFQEGDIILVLSKVNEEWLEGECKGKVGIFPKVFGEDC [V56G], for which the abundance fitness was -0.713 ± 0.13.
On to LKKGSQVEALFSYEATQPEDLEFQEGDIILVLSKVNEEWLEGECKGKVGIFPKVFREDC [V56R], for which the abundance fitness is -0.637 ± 0.16.
In the case of LKKGSQVEALFSYEATQPEDLEFQEGDIILVLSKVNEEWLEGECKGKVGIFPKVFDEDC [V56D] it was -0.412 ± 0.16.
Take LKKGSQVEALFSYEATQPEDLEFQEGDIILVLSKVNEEWLEGECKGKVGIFPKVFEEDC [V56E]: the abundance fitness is -0.415 ± 0.36.
With LKKGSQVEALFSYEATQPEDLEFQEGDIILVLSKVNEEWLEGECKGKVGIFPKVFIEDC [V56I], the abundance fitness was -0.81 ± 0.22.
In the case of LKKGSQVEALFSYEATQPEDLEFQEGDIILVLSKVNEEWLEGECKGKVGIFPKVFLEDC [V56L] it was -0.589 ± 0.15; in that of LKKGSQVEALFSYEATQPEDLEFQEGDIILVLSKVNEEWLEGECKGKVGIFPKVFWEDC [V56W], -0.46 ± 0.27; in that of LKKGSQVEALFSYEATQPEDLEFQEGDIILVLSKVNEEWLEGECKGKVGIFPKVFQEDC [V56Q], -0.581 ± 0.23.
Consider LKKGSQVEALFSYEATQPEDLEFQEGDIILVLSKVNEEWLEGECKGKVGIFPKVFHEDC [V56H], for which the abundance fitness is -0.624 ± 0.16.
In the case of LKKGSQVEALFSYEATQPEDLEFQEGDIILVLSKVNEEWLEGECKGKVGIFPKVFCEDC [V56C], the abundance fitness is -0.52 ± 0.16.
Turning to LKKGSQVEALFSYEATQPEDLEFQEGDIILVLSKVNEEWLEGECKGKVGIFPKVFYEDC [V56Y], the abundance fitness is -0.574 ± 0.14.
LKKGSQVEALFSYEATQPEDLEFQEGDIILVLSKVNEEWLEGECKGKVGIFPKVFAEDC [V56A]: the abundance fitness was -0.719 ± 0.18.
Under LKKGSQVEALFSYEATQPEDLEFQEGDIILVLSKVNEEWLEGECKGKVGIFPKVFFEDC [V56F] stands -0.255 ± 0.11.
In the case of LKKGSQVEALFSYEATQPEDLEFQEGDIILVLSKVNEEWLEGECKGKVGIFPKVFNEDC [V56N] it was -0.439 ± 0.15.
On to LKKGSQVEALFSYEATQPEDLEFQEGDIILVLSKVNEEWLEGECKGKVGIFPKVFTEDC [V56T], for which the abundance fitness is -0.457 ± 0.14.
On to LKKGSQVEALFSYEATQPEDLEFQEGDIILVLSKVNEEWLEGECKGKVGIFPKVFVEYC [D58Y], for which the abundance fitness was -0.595 ± 0.15.
Take LKKGSQVEALFSYEATQPEDLEFQEGDIILVLSKVNEEWLEGECKGKVGIFPKVFVEEC [D58E]: the abundance fitness stood at 0.091 ± 0.21.
Consider LKKGSQVEALFSYEATQPEDLEFQEGDIILVLSKVNEEWLEGECKGKVGIFPKVFVELC [D58L], for which the abundance fitness is -0.493 ± 0.15.
For the variant LKKGSQVEALFSYEATQPEDLEFQEGDIILVLSKVNEEWLEGECKGKVGIFPKVFVESC [D58S], the abundance fitness came out at 0.022 ± 0.1.
Take LKKGSQVEALFSYEATQPEDLEFQEGDIILVLSKVNEEWLEGECKGKVGIFPKVFVECC [D58C]: the abundance fitness was found to be 0.313 ± 0.09.
In the case of LKKGSQVEALFSYEATQPEDLEFQEGDIILVLSKVNEEWLEGECKGKVGIFPKVFVEFC [D58F] it was -0.718 ± 0.21; in that of LKKGSQVEALFSYEATQPEDLEFQEGDIILVLSKVNEEWLEGECKGKVGIFPKVFVEIC [D58I], -0.268 ± 0.17; in that of LKKGSQVEALFSYEATQPEDLEFQEGDIILVLSKVNEEWLEGECKGKVGIFPKVFVEPC [D58P], 0.214 ± 0.17.
For the variant LKKGSQVEALFSYEATQPEDLEFQEGDIILVLSKVNEEWLEGECKGKVGIFPKVFVEMC [D58M], the abundance fitness was -0.203 ± 0.29.
For the variant LKKGSQVEALFSYEATQPEDLEFQEGDIILVLSKVNEEWLEGECKGKVGIFPKVFVEQC [D58Q], the abundance fitness is -0.079 ± 0.29.
For the variant LKKGSQVEALFSYEATQPEDLEFQEGDIILVLSKVNEEWLEGECKGKVGIFPKVFVETC [D58T], the abundance fitness came to 0.133 ± 0.16.
For the variant LKKGSQVEALFSYEATQPEDLEFQEGDIILVLSKVNEEWLEGECKGKVGIFPKVFVEGC [D58G], the abundance fitness came to 0.392 ± 0.13.
Under LKKGSQVEALFSYEATQPEDLEFQEGDIILVLSKVNEEWLEGECKGKVGIFPKVFVERC [D58R] stands 0.155 ± 0.13; under LKKGSQVEALFSYEATQPEDLEFQEGDIILVLSKVNEEWLEGECKGKVGIFPKVFVEKC [D58K], 0.351 ± 0.26; under LKKGSQVEALFSYEATQPEDLEFQEGDIILVLSKVNEEWLEGECKGKVGIFPKVFVEVC [D58V], -0.138 ± 0.16.
With LKKGSQVEALFSYEATQPEDLEFQEGDIILVLSKVNEEWLEGECKGKVGIFPKVFVEDT [C59T], the abundance fitness is 0.289 ± 0.13.
In the case of LKKGSQVEALFSYEATQPEDLEFQEGDIILVLSKVNEEWLEGECKGKVGIFPKVFVEDR [C59R], the abundance fitness is -0.173 ± 0.2.
On to LKKGSQVEALFSYEATQPEDLEFQEGDIILVLSKVNEEWLEGECKGKVGIFPKVFVEDY [C59Y], for which the abundance fitness was -0.204 ± 0.14.
In the case of LKKGSQVEALFSYEATQPEDLEFQEGDIILVLSKVNEEWLEGECKGKVGIFPKVFVEDN [C59N] it was -0.242 ± 0.18; in that of LKKGSQVEALFSYEATQPEDLEFQEGDIILVLSKVNEEWLEGECKGKVGIFPKVFVEDD [C59D], -0.555 ± 0.23.
Consider LKKGSQVEALFSYEATQPEDLEFQEGDIILVLSKVNEEWLEGECKGKVGIFPKVFVEDI [C59I], for which the abundance fitness turned out to be 0.153 ± 0.15.
For the variant LKKGSQVEALFSYEATQPEDLEFQEGDIILVLSKVNEEWLEGECKGKVGIFPKVFVEDV [C59V], the abundance fitness was 0.402 ± 0.14.
In the case of LKKGSQVEALFSYEATQPEDLEFQEGDIILVLSKVNEEWLEGECKGKVGIFPKVFVEDS [C59S], the abundance fitness is -0.012 ± 0.091.
Consider LKKGSQVEALFSYEATQPEDLEFQEGDIILVLSKVNEEWLEGECKGKVGIFPKVFVEDH [C59H], for which the abundance fitness was -0.361 ± 0.22.
In the case of LKKGSQVEALFSYEATQPEDLEFQEGDIILVLSKVNEEWLEGECKGKVGIFPKVFVEDG [C59G] it was -0.64 ± 0.22; in that of LKKGSQVEALFSYEATQPEDLEFQEGDIILVLSKVNEEWLEGECKGKVGIFPKVFVEDA [C59A], 0.057 ± 0.21; in that of LKKGSQVEALFSYEATQPEDLEFQEGDIILVLSKVNEEWLEGECKGKVGIFPKVFVEDL [C59L], -0.112 ± 0.21.
In the case of LKKGSQVEALFSYEATQPEDLEFQEGDIILVLSKVNEEWLEGECKGKVGIFPKVFVEDP [C59P], the abundance fitness stood at 0.078 ± 0.14.
On to LKKGSQVEALFSYEATQPEDLEFQEGDIILVLSKVNEEWLEGECKGKVGIFPKVFVEDF [C59F], for which the abundance fitness is -0.044 ± 0.14.
As to LKKGSQVEALFSYEATQPEDLEFQEGDIILVLSKVNEEWLEGECKGKVGIFPKVFVLDC [E57L], the abundance fitness is -0.505 ± 0.13.
Regarding LKKGSQVEALFSYEATQPEDLEFQEGDIILVLSKVNEEWLEGECKGKVGIFPKVFVNDC [E57N], the abundance fitness was -0.194 ± 0.13.
LKKGSQVEALFSYEATQPEDLEFQEGDIILVLSKVNEEWLEGECKGKVGIFPKVFVQDC [E57Q]: the abundance fitness turned out to be 0.541 ± 0.16.
As for LKKGSQVEALFSYEATQPEDLEFQEGDIILVLSKVNEEWLEGECKGKVGIFPKVFVIDC [E57I], the abundance fitness is -0.697 ± 0.22.
In the case of LKKGSQVEALFSYEATQPEDLEFQEGDIILVLSKVNEEWLEGECKGKVGIFPKVFVMDC [E57M] it was -0.464 ± 0.21.
Under LKKGSQVEALFSYEATQPEDLEFQEGDIILVLSKVNEEWLEGECKGKVGIFPKVFVDDC [E57D] stands -0.254 ± 0.17.
Consider LKKGSQVEALFSYEATQPEDLEFQEGDIILVLSKVNEEWLEGECKGKVGIFPKVFVPDC [E57P], for which the abundance fitness is -0.28 ± 0.21.
Under LKKGSQVEALFSYEATQPEDLEFQEGDIILVLSKVNEEWLEGECKGKVGIFPKVFVCDC [E57C] stands -0.15 ± 0.18; under LKKGSQVEALFSYEATQPEDLEFQEGDIILVLSKVNEEWLEGECKGKVGIFPKVFVTDC [E57T], 0.487 ± 0.087.
As for LKKGSQVEALFSYEATQPEDLEFQEGDIILVLSKVNEEWLEGECKGKVGIFPKVFVFDC [E57F], the abundance fitness was -0.607 ± 0.18.
Take LKKGSQVEALFSYEATQPEDLEFQEGDIILVLSKVNEEWLEGECKGKVGIFPKVFVHDC [E57H]: the abundance fitness was -0.084 ± 0.13.
Turning to LKKGSQVEALFSYEATQPEDLEFQEGDIILVLSKVNEEWLEGECKGKVGIFPKVFVKDC [E57K], the abundance fitness turned out to be 0.201 ± 0.2.
Take LKKGSQVEALFSYEATQPEDLEFQEGDIILVLSKVNEEWLEGECKGKVGIFPKVFVGDC [E57G]: the abundance fitness was 0.005 ± 0.13.
In the case of LKKGSQVEALFSYEATQPEDLEFQEGDIILVLSKVNEEWLEGECKGKVGIFPKVFVWDC [E57W] it was -0.033 ± 0.28; in that of LKKGSQVEALFSYEATQPEDLEFQEGDIILVLSKVNEEWLEGECKGKVGIFPKVFVSDC [E57S], 0.271 ± 0.078.
In the case of LKKGSQVEALFSYEATQPEDLEFQEGDIILVLSKVNEEWLEGECKGKVGIFPKVFVVDC [E57V] it was -0.198 ± 0.12.
Under LKKGSQVEALFSYEATQPEDLEFQEGDIILVLSKVNEEWLEGECKGKVGIFPKVFVRDC [E57R] stands 0.865 ± 0.091.
